From article PMC6675907, “Identification and functional characterisation of a novel N-cyanoamidine neonicotinoid metabolising cytochrome P450, CYP9Q6, from the buff-tailed bumblebee Bombus terrestris” (Insect Biochemistry and Molecular Biology, 2019) come the findings set out here.

Substrate in data set [1]: C/C(=N\C#N)N(C)Cc1ccc(Cl)nc1
The data set can be described thus: LC-MS/MS of metabolites, microsomes with recombinant P450/CPR, Michaelis-Menten fit. It counts as biochemical, Bombus terrestris. The settings on record: NADPH regeneration system, 30 °C, 1 h, substrate 3.1-200 μM, house fly CPR co-expressed.

Substrate in data set [2]: N#C/N=C1\SCCN1Cc1ccc(Cl)nc1
Described as above. It counts as biochemical, Bombus terrestris. The settings on record: NADPH regeneration system, 30 °C, 1 h, substrate 3.1-200 μM, house fly CPR co-expressed.

B1: CYP9Q6 (Bombus terrestris audax) (protein)
chain: MEYLSLGLFLIAILIAIYYCATKNHNLFKKHGILHIPPMPLFGNMGSFFAKRSTLQDTILEAYELHPEAKYVGIYESLTPIIVLRDLDLIKSVNMKNFDHFTDHRNFVFKDMDPIFAGMLFSMKGEQWKEQRSILSLAFTSNKVKDMFNLMSECATRYANYLSNLAENEREMEMRDLLTKYTNDVIATCVYGVSVDTIKNPKNVFYTYGKSTTFTSFKKDMAMLAQRNLPWLAKLFQLRFLEKHIAKFFTEQVINTIEERKQNGTYRSDILQLFIDVNDKKVPGKGMSTENMVNHAFSLFFGGTDSVATQTSFLFYLLAENPEILKRLQEEIDETLENNNGQLTYDAIQKMKYLDAMINEAMRLQPITVFLDRLCVKDFELPPALPGEKPFTVKAGMNIWIPVDAIHHDPKHYENPQKFDPDRFLENGKKIINSGAFMPFGLGPRICIGNRFALTEIKVLLCHILAKCNVKIGSKMLLPLQYEEGVITAYAKNGFWLNVEPREHSYCTSQTNGTTKHLSNGNCRN
notes: with NADPH--cytochrome P450 reductase (Musca domestica, house fly)
A word on the Km: it is the substrate concentration at which the rate is half of its maximum. For B1, the Km is 27.32 µM in data set [1] and 15.83 µM in data set [2].
